For test [1], the target named is T1, human CD3ε/δ (ACRO systems, CDD-H52W1) (human, UniProt P07766 23-126; P04234 22-105).
T1 construct: Bought protein; also called human CD3ϵ/CD3δ; human CD3 epsilon/delta antigen
In words: BLI, antibody captured, antigen in solution.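 Further: bispecific antibodies captured on AHIC biosensors to a 1.5 nm loading signal, in PBST with 0.02% detergent.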
Method: The bispecific antibodies were diluted to 5 ag/ml, and 1.5 nm protein was coupled to the surface of the AHIC sensor chip through 0.02% PBST.

Test [2] deals with T2, human CD3 on Jurkat cells (human, UniProt P07766 23-207; P04234 22-171; P09693 23-182).
T2 construct: whole, on cells; CD3 complex as on Jurkat (Clone E6-1) cells; also called CD3 expressing cells (Jurkat)
In words: FACS, Jurkat cells.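 Further: flow cytometric binding of bispecific antibodies to Jurkat T cells, threefold serial dilutions incubated half an hour in the cold, EC50 taken from the fitted binding curve.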

Values joined by “and” are separate entries in the source; they are usually repeats but may differ in a detail not shown here. Equal values may be shown once.

B1: 302 (TA3), configuration of FIG. 1W (bispecific antibody, IgG4)
heavy: EVQLVESGGGLVQPGGSLRLSCAASGYSFTGYTMNWVRQAPGKGLEWVALINPYKGVSTYNQKFKDRFTISVDKSKNTAYLQMNSLRAEDTAVYYCARSGYYGDSDWYFDVWGQGTLVTVSSASTKGPSVFPLAPCSRSTSESTAALGCLVKDYFPEPVTVSWNSGALTSGVHTFPAVLQSSGLYSLSSVVTVPSSSLGTKTYTCNVDHKPSNTKVDKRVESKYGPPCPPCPAPEAAGGPSVFLFPPKPKDTLMISRTPEVTCVVVDVSQEDPEVQFNWYVDGVEVHNAKTKPREEQFNSTYRVVSVLTVLHQDWLNGKEYKCKVSNKGLPSSIEKTISKAKGQPREPQVYTLPPCQEEMTKNQVSLWCLVKGFYPSDIAVEWESNGQPENNYKTTPPVLDSDGSFFLYSRLTVDKSRWQEGNVFSCSVMHEALHNHYTQKSLSLSL
chain: EVQLVESGGGFVQAGESLTLSCTSSTLTFTPYRMAWYRQAPGKQRDLVADISSGDGRTTNYADFAKGRFTISRDNIKNTVFLRMTNLKPEDTAVYYCNTFVSFVGIARSWGQGTQVTVSSESKYGPPCPPCPAPEAAGGPSVFLFPPKPKDTLMISRTPEVTCVVVDVSQEDPEVQFNWYVDGVEVHNAKTKPREEQFNSTYRVVSVLTVLHQDWLNGKEYKCKVSNKGLPSSIEKTISKAKGQPREPQVCTLPPSQEEMTKNQVSLSCAVKGFYPSDIAVEWESNGQPENNYKTTPPVLDSDGSFFLVSRLTVDKSRWQEGNVFSCSVMHEALHNRFTQKSLSLSL
light: DIQMTQSPSSLSASVGDRVTITCRASQDIRNYLNWYQQKPGKAPKLLIYYTSRLESGVPSRFSGSGSGTDYTLTISSLQPEDFATYYCQQGNTLPWTFGQGTKVEIK
notes: chains put together from VH/VL, CH1, knob-Fc; IgG4, kappa; also called CEA-CD3 bispecific antibody 302; not shown: kappa light chain constant domain (CL)
In test [1], B1 had a dissociation constant Kd of 3.63 nM, a koff of 0.000879 s⁻¹ and a kon of 246000 M⁻¹ s⁻¹. Also, in test [2], the EC50 is 1.4 µg/mL and 10.8 nM.

B2: Fab-Knob-CEA+Hole (102) (bispecific antibody, human IgG4 S228P, kappa, F234A L235A)
heavy: EVKLLESGGGLVQPKGSLKLSCAASGFTFNTYAMNWVRQAPGKGLEWVARIRSKYNNYATYYADSVKDRFTISRDDSQSILYLQMNNLKTEDTAMYYCVRHGNFGNSYVSWFAYWGQGTLVTVSSASTKGPSVFPLAPCSRSTSESTAALGCLVKDYFPEPVTVSWNSGALTSGVHTFPAVLQSSGLYSLSSVVTVPSSSLGTKTYTCNVDHKPSNTKVDKRVESKYGPPCPPCPAPEAAGGPSVFLFPPKPKDTLMISRTPEVTCVVVDVSQEDPEVQFNWYVDGVEVHNAKTKPREEQFNSTYRVVSVLTVLHQDWLNGKEYKCKVSNKGLPSSIEKTISKAKGQPREPQVYTLPPCQEEMTKNQVSLWCLVKGFYPSDIAVEWESNGQPENNYKTTPPVLDSDGSFFLYSRLTVDKSRWQEGNVFSCSVMHEALHNHYTQKSLSLSLGGGGSGGGGSEVQLVESGGGFVQAGESLTLSCTSSTLTFTPYRMAWYRQAPGKQRDLVADISSGDGRTTNYADFAKGRFTISRDNIKNTVFLRMTNLKPEDTAVYYCNTFVSFVGIARSWGQGTQVTVSS
chain: ESKYGPPCPPCPAPEAAGGPSVFLFPPKPKDTLMISRTPEVTCVVVDVSQEDPEVQFNWYVDGVEVHNAKTKPREEQFNSTYRVVSVLTVLHQDWLNGKEYKCKVSNKGLPSSIEKTISKAKGQPREPQVCTLPPSQEEMTKNQVSLSCAVKGFYPSDIAVEWESNGQPENNYKTTPPVLDSDGSFFLVSRLTVDKSRWQEGNVFSCSVMHEALHNRFTQKSLSLSL
light: QAVVTQESALTTSPGETVTLTCRSSTGAVTTSNYANWVQEKPDHLFTGLIGGTNKRAPGVPARFSGSLIGDKAALTITGAQTEDEAIYFCALWYSNLWVFGGGTKVEIKRTVAAPSVFIFPPSDEQLKSGTASVVCLLNNFYPREAKVQWKVDNALQSGNSQESVTEQDSKDSTYSLSSTLTLSKADYEKHKVYACEVTHQGLSSPVTKSFNRGEC
notes: Anti-CD3 TA1 Fab + anti-CEA VHH C17 on human IgG4 knob-into-hole Fc
In test [1], B2 gave a Kd of 0.984 nM, a koff of 0.000327 s⁻¹ and an on-rate (kon) of 333000 M⁻¹ s⁻¹. For the same molecule, the EC50 in test [2] is 0.592 µg/mL and 4.55 nM.

B3: CEA-Fab-Knob-+Hole (203) (bispecific antibody, human IgG4 S228P, kappa, F234A L235A)
heavy: EVKLLESGGGLVQPKGSLKLSCAASGFTFNTYAMNWVRQAPGKGLEWVARIRSKYNNYATYYADSVKDRFTISRDDSQSILYLQMNNLKTEDTAMYYCVRHGNFGNSYVSWFAYWGQGTLVTVSSASTKGPSVFPLAPCSRSTSESTAALGCLVKDYFPEPVTVSWNSGALTSGVHTFPAVLQSSGLYSLSSVVTVPSSSLGTKTYTCNVDHKPSNTKVDKRVESKYGPPCPPCPAPEAAGGPSVFLFPPKPKDTLMISRTPEVTCVVVDVSQEDPEVQFNWYVDGVEVHNAKTKPREEQFNSTYRVVSVLTVLHQDWLNGKEYKCKVSNKGLPSSIEKTISKAKGQPREPQVYTLPPCQEEMTKNQVSLWCLVKGFYPSDIAVEWESNGQPENNYKTTPPVLDSDGSFFLYSRLTVDKSRWQEGNVFSCSVMHEALHNHYTQKSLSLSL
chain: ESKYGPPCPPCPAPEAAGGPSVFLFPPKPKDTLMISRTPEVTCVVVDVSQEDPEVQFNWYVDGVEVHNAKTKPREEQFNSTYRVVSVLTVLHQDWLNGKEYKCKVSNKGLPSSIEKTISKAKGQPREPQVCTLPPSQEEMTKNQVSLSCAVKGFYPSDIAVEWESNGQPENNYKTTPPVLDSDGSFFLVSRLTVDKSRWQEGNVFSCSVMHEALHNRFTQKSLSLSL
light: EVQLVESGGGFVQAGESLTLSCTSSTLTFTPYRMAWYRQAPGKQRDLVADISSGDGRTTNYADFAKGRFTISRDNIKNTVFLRMTNLKPEDTAVYYCNTFVSFVGIARSWGQGTQVTVSSGGGGSGGGGSQAVVTQESALTTSPGETVTLTCRSSTGAVTTSNYANWVQEKPDHLFTGLIGGTNKRAPGVPARFSGSLIGDKAALTITGAQTEDEAIYFCALWYSNLWVFGGGTKVEIKRTVAAPSVFIFPPSDEQLKSGTASVVCLLNNFYPREAKVQWKVDNALQSGNSQESVTEQDSKDSTYSLSSTLTLSKADYEKHKVYACEVTHQGLSSPVTKSFNRGEC
notes: VHH linked to the VL of the Fab; human IgG4 knob-into-hole Fc
Turning to B3, in test [1], the dissociation constant Kd was 2.51 nM, the dissociation rate constant (koff) is 0.000621 s⁻¹ and the kon was found to be 248000 M⁻¹ s⁻¹. Also, the EC50 in test [2] was 0.29 µg/mL and 2.23 nM.

B4: Knob+CEA-Fab-Hole (202) (bispecific antibody, human IgG4 S228P, kappa, F234A L235A)
chain: ESKYGPPCPPCPAPEAAGGPSVFLFPPKPKDTLMISRTPEVTCVVVDVSQEDPEVQFNWYVDGVEVHNAKTKPREEQFNSTYRVVSVLTVLHQDWLNGKEYKCKVSNKGLPSSIEKTISKAKGQPREPQVYTLPPCQEEMTKNQVSLWCLVKGFYPSDIAVEWESNGQPENNYKTTPPVLDSDGSFFLYSRLTVDKSRWQEGNVFSCSVMHEALHNHYTQKSLSLSL
heavy: EVKLLESGGGLVQPKGSLKLSCAASGFTFNTYAMNWVRQAPGKGLEWVARIRSKYNNYATYYADSVKDRFTISRDDSQSILYLQMNNLKTEDTAMYYCVRHGNFGNSYVSWFAYWGQGTLVTVSSASTKGPSVFPLAPCSRSTSESTAALGCLVKDYFPEPVTVSWNSGALTSGVHTFPAVLQSSGLYSLSSVVTVPSSSLGTKTYTCNVDHKPSNTKVDKRVESKYGPPCPPCPAPEAAGGPSVFLFPPKPKDTLMISRTPEVTCVVVDVSQEDPEVQFNWYVDGVEVHNAKTKPREEQFNSTYRVVSVLTVLHQDWLNGKEYKCKVSNKGLPSSIEKTISKAKGQPREPQVCTLPPSQEEMTKNQVSLSCAVKGFYPSDIAVEWESNGQPENNYKTTPPVLDSDGSFFLVSRLTVDKSRWQEGNVFSCSVMHEALHNRFTQKSLSLSL
light: QAVVTQESALTTSPGETVTLTCRSSTGAVTTSNYANWVQEKPDHLFTGLIGGTNKRAPGVPARFSGSLIGDKAALTITGAQTEDEAIYFCALWYSNLWVFGGGTKVEIKRTVAAPSVFIFPPSDEQLKSGTASVVCLLNNFYPREAKVQWKVDNALQSGNSQESVTEQDSKDSTYSLSSTLTLSKADYEKHKVYACEVTHQGLSSPVTKSFNRGECGGGGSGGGGSEVQLVESGGGFVQAGESLTLSCTSSTLTFTPYRMAWYRQAPGKQRDLVADISSGDGRTTNYADFAKGRFTISRDNIKNTVFLRMTNLKPEDTAVYYCNTFVSFVGIARSWGQGTQVTVSS
notes: VHH linked to the CL of the Fab; human IgG4 knob-into-hole Fc
For the molecule B4, in test [1], the Kd stood at 3.9 nM, the koff was 0.000866 s⁻¹ and the kon was 222000 M⁻¹ s⁻¹. Also, the concentration giving a half-maximal response (EC50) in test [2] is 0.292 µg/mL and 2.25 nM.

B5: Fab-Knob+Hole-CEA (103) (bispecific antibody, human IgG4 S228P, kappa, F234A L235A)
heavy: EVKLLESGGGLVQPKGSLKLSCAASGFTFNTYAMNWVRQAPGKGLEWVARIRSKYNNYATYYADSVKDRFTISRDDSQSILYLQMNNLKTEDTAMYYCVRHGNFGNSYVSWFAYWGQGTLVTVSSASTKGPSVFPLAPCSRSTSESTAALGCLVKDYFPEPVTVSWNSGALTSGVHTFPAVLQSSGLYSLSSVVTVPSSSLGTKTYTCNVDHKPSNTKVDKRVESKYGPPCPPCPAPEAAGGPSVFLFPPKPKDTLMISRTPEVTCVVVDVSQEDPEVQFNWYVDGVEVHNAKTKPREEQFNSTYRVVSVLTVLHQDWLNGKEYKCKVSNKGLPSSIEKTISKAKGQPREPQVYTLPPCQEEMTKNQVSLWCLVKGFYPSDIAVEWESNGQPENNYKTTPPVLDSDGSFFLYSRLTVDKSRWQEGNVFSCSVMHEALHNHYTQKSLSLSL
chain: ESKYGPPCPPCPAPEAAGGPSVFLFPPKPKDTLMISRTPEVTCVVVDVSQEDPEVQFNWYVDGVEVHNAKTKPREEQFNSTYRVVSVLTVLHQDWLNGKEYKCKVSNKGLPSSIEKTISKAKGQPREPQVCTLPPSQEEMTKNQVSLSCAVKGFYPSDIAVEWESNGQPENNYKTTPPVLDSDGSFFLVSRLTVDKSRWQEGNVFSCSVMHEALHNRFTQKSLSLSLGGGGSGGGGSEVQLVESGGGFVQAGESLTLSCTSSTLTFTPYRMAWYRQAPGKQRDLVADISSGDGRTTNYADFAKGRFTISRDNIKNTVFLRMTNLKPEDTAVYYCNTFVSFVGIARSWGQGTQVTVSS
light: QAVVTQESALTTSPGETVTLTCRSSTGAVTTSNYANWVQEKPDHLFTGLIGGTNKRAPGVPARFSGSLIGDKAALTITGAQTEDEAIYFCALWYSNLWVFGGGTKVEIKRTVAAPSVFIFPPSDEQLKSGTASVVCLLNNFYPREAKVQWKVDNALQSGNSQESVTEQDSKDSTYSLSSTLTLSKADYEKHKVYACEVTHQGLSSPVTKSFNRGEC
notes: as for B2
In test [1], B5 gave a Kd of 0.662 nM, a koff of 0.000233 s⁻¹ and a kon of 352000 M⁻¹ s⁻¹. Further, the EC50 in test [2] is 0.848 µg/mL and 6.52 nM.

Values taken from patent US20240400715A1 (VIBRANT PHARMA, published 2024).
